In patent US11299526B2, “p53-BAD fusion proteins” (University of Utah Research Foundation, priority 2018, dated 2022):
“Also recorded” adds a separate entry of the source.

B1: Bad/112,136: Bad with S112A and S136A mutations (SEQ ID NO:2), no p53, negative control (protein)
chain: MFQIPEFEPSEQEDSSSAERGLGPSPAGDGPSGSGKHHRQAPGLLWDASHQQEQPTSSSHHGGAGAVEIRSRHSAYPAGTEDDEGMGEEPSPFRGRSRAAPPNLWAAQRYGRELRRMSDEFVDSFKKGLPRPKSAGTATQMRQSSSWTRVFQSWWDRNLGRGSSAPSQ
modifications: mutated BAD peptide
B2: Bad: EGFP-tagged human Bad without p53 (SEQ ID NO:1), negative control (protein, UniProt Q92934 1-168, looked up)
Bcl2-associated agonist of …: MFQIPEFEPSEQEDSSSAERGLGPSPAGDGPSGSGKHHRQAPGLLWDASHQQEQPTSSSHHGGAGAVEIRSRHSSYPAGTEDDEGMGEEPSPFRGRSRSAPPNLWAAQRYGRELRRMSDEFVDSFKKGLPRPKSAGTATQMRQSSSWTRVFQSWWDRNLGRGSSAPSQ
modifications: EGFP tag

How the values were obtained:
Kuramochi cells [1] = experiment: Paclitaxel cell viability assay; format: cell-based; conditions: Homo sapiens, 48 hr
Procedure: Paclitaxel powder (LC Laboratories; Wobum, Mass.) was dissolved in DMSO to 10 mg/mL to make a stock solution. To determine the paclitaxel IC50 in Kuramochi cells, 8×10^3 Kuramochi cells were seeded in 96-well plates 24 hr prior to drug treatment. Paclitaxel in complete growth medium was added at increasing concentrations, and the cells were incubated for 48 hr. The Aqueous One Cell Proliferation Assay (Promega) was used to assess cell viability. For gene transfection and paclitaxel combination treatment, the cells were transfected first. 4 hr after transfection, paclitaxel was added at 100 nM or 200 nM, and the cells were incubated for 48 hr as previously optimized by our lab.
After confirming the high apoptotic potential of p53-Bad/112,136, we wanted to test the possibility of combining p53-Bad/112,136 gene therapy with paclitaxel, a standard-of-care for HGSC. Based on a genomic and gene expression profile study with 47 ovarian cancer cell lines, Kuramochi was identified to be the best model for high grade serous ovarian cancer, with the highest genetic similarity to ovarian tumors. The IC50 of paclitaxel was determined using a cell viability […] assay. Kuramochi cells were incubated with different paclitaxel concentrations ranging from 0 nM to 1000 nM for 48 hr. The IC50 value was determined to be approximately 100 nM. […]

OVCAR-3 cells [2] = conditions: cited from earlier work
[3] = Preliminary toxicity study, IP injected polymer and polymer-Ad; conditions: mouse, in vivo
ID8 cells = experiment: 7-AAD late apoptosis/cell death assay; format: cell-based, mouse; conditions: ID8, 24 hr post-transfection
Procedure: (§1) Images of p53-BH3 (EGFP tagged on N-terminus) can be acquired 18 h post-transfection with an Olympus IX71F fluorescence microscope with a F-View Monochrome CCD camera and analyzed with ImageJ using Pearson's correlation coefficient (PCC) and post Costes' algorithm. PCC≥0.6 are considered to be colocalized. […] Apoptosis assay: 7-AAD assay (measuring late-stage apoptosis) can be performed as done before as an initial screen. As before, cells can be stained with […] working solution of 7-aminoactinomycin D (7-AAD) 24 hr post-transfection. Cells can be analyzed and gated for EGFP with the same fluorescence intensity to ensure equal detection of proteins
(§2) 7-AAD assay was performed as before (14, 15). Briefly, the cells were collected 24 hr post-transfection. The cell pellets were resuspended in 300 μL of 1.25 μg/mL 7-AAD in PBS. The cells were incubated on ice for 20 minutes, and analyzed using FACS-Canto-II similar to the TMRE assay. The cells were gated for EGFP positive (excitation at 480 nm and emission at 535 nm) and 7-AAD positive (excitation at 496 nm and emission at 785 nm). The constructs were assayed in triplicates. The lowest and highest values were set at 0% and 100%, respectively (relative 7-AAD) as before (14).

SKOV-3 cells [4] = experiment: 7-AAD late apoptosis/cell death assay; format: cell-based, human; conditions: SKOV-3, 24 hr post-transfection
Procedure: as §1, §2

[5] = tested on: SKOV-3, OVCAR-3, ID8 and Kuramochi cells; experiment: 7-AAD late apoptosis/cell death assay, statements for all four ovarian cancer cell lines; format: cell-based, human, mouse; conditions: 24 hr post-transfection
Procedure: as §2

OVCAR-3 cells [6] = experiment: TMRE mitochondrial depolarization (MOMP) assay; format: cell-based, human; conditions: OVCAR-3, 20 hr post-transfection
Excerpt: […] Flow cytometry can be used to analyze […] cells using the PE-A channel (excitation at 561 nm with emission at 585/15). Loss in TMRE intensity represents mitochondrial depolarization, which correlates to mitochondrial outer membrane permeabilization (MOMP). […] Bad alone constructs may have some activity, but may be weaker or slower acting than p53-Bad constructs. This underscores the importance of using apoptotic, cell death, proliferation, and oncogenic assays to paint a complete picture of construct potency/efficacy.
(§3) […] Cells were incubated for 30 minutes at 37° C. then analyzed using flow cytometry (FACS-Canto-II with FACS Diva software, core facility, University of Utah) as described before. EGFP was excited at 488 nm with emission filter 530/35, and TMRE was excited at 561 nm with emission filter 585/15. The loss in TMRE intensity indicates mitochondrial depolarization, which correlates with an increase in the permeabilization of the mitochondrial outer membrane (MOMP). Each construct was transfected independently and tested in triplicates (n=3). The lowest MOMP value was set as 0%, and the highest MOMP value as 100% as before.

SKOV-3 cells [7] = experiment: Mitochondrial localization of EGFP-tagged constructs, fluorescence microscopy with PCC analysis; format: cell-based, human; conditions: mitochondria stained with MitoTracker Red, CMV promoter
Procedure: as §1
24 hr post-transfection, cells were stained in PBS solution containing 200 nM MitoTracker Red CM-H2Xros (Thermo Scientific), 1:100 dilution of ProLong Live Antifade Reagent (Thermo Scientific), and 2 μM Hoechst stain. The cells were incubated for 20 minutes protected from light. Images were acquired using a Nikon AIR fluorescence confocal microscope with 60× Plan Apo Oil immersion objective (core facility, University of Utah). The images were visualized using NIS element software with built in EGFP, MitoTracker Red, and DAPI filters. Co-localization analyses were performed using the JACoP plugin for ImageJ software. […] The experiments were performed three times with 10 cells analyzed each experiment for a total of 30 cells per gene constructs.

[8] = tested on: SKOV-3, OVCAR-3, ID8 and Kuramochi cells; experiment: TMRE mitochondrial depolarization (MOMP) assay, statements for the four ovarian cancer cell lines; format: cell-based, human, mouse; conditions: four cell lines of FIG. 17, 20 hr post-transfection
Procedure: as §3

p53-Luc Cis-Reporter = experiment: Nuclear transcriptional activity p53 luciferase reporter gene assay; format: cell-based; conditions: SKOV-3, OVCAR-3, ID8 and Kuramochi cells, 24 hr post-transfection
Procedure: All constructs (3.5 μg of DNA) were co-transfected with 3.5 μg of p53-Luc Cis-reporter plasmid encoding a firefly luciferase gene (Agilent Technologies; Santa Clara, Calif.) and 0.35 μg of pRL-SV40 plasmid encoding a Renilla luciferase gene (Promega; Madison, Wis.). Renilla luciferase was used to normalize for transfection efficiency in respective cell lines. The Dual-Glo Luciferase Assay System (Promega) was used to determine the firefly luciferase activity and Renilla luciferase activity per manufacturer's recommendation 24 hr post-transfection as before. The luminescence signal was detected using the Infinite M1000 microplate reader (Tecan; Männedorf, Switzerland). The Dual-Glo luciferase assay was performed in triplicate.

Kuramochi cells [9] = experiment: 7-AAD assay of constructs combined with paclitaxel; format: cell-based, human; conditions: paclitaxel 100 nM or 200 nM added 4 hr after transfection, 48 hr
Procedure: The IC50 of paclitaxel was determined using a cell viability MTT assay. Kuramochi cells were incubated with different paclitaxel concentrations ranging from 0 nM to 1000 nM for 48 hr. […] A control group without paclitaxel (0 nM) was also included. The cells were incubated for 48 hr before the 7-AAD assay.

Row | Molecule | apoptosis / cell death (7-AAD) (ID8 cells) | apoptosis / cell death (7-AAD) (SKOV-3 cells [4]) | apoptosis / cell death (7-AAD) [5] | mitochondrial depolarization / % MOMP induction (TMRE) (OVCAR-3 cells [6]) | subcellular localization of EGFP-tagged construct (SKOV-3 cells [7]) | mitochondrial depolarization / % MOMP induction (TMRE) [8] | nuclear transcriptional activity (firefly luciferase) (p53-Luc Cis-Reporter) | also measured
1 | CC(=O)O[C@H]1C(=O)[C@@]2(C)[C@H]([C@H](OC(=O)c3ccccc3)[C@]3(O)C[C@H](OC(=O)[C@H](O)[C@@H](NC(=O)c4ccccc4)c4ccccc4)C(C)=C1C3(C)C)[C@]1(OC(C)=O)CO[C@@H]1C[C@@H]2O [paclitaxel] |  |  |  |  |  |  |  | IC50 (Kuramochi cells [1]): ~0.1 µM
2 | CN(C)CC[C@H](CSc1ccccc1)Nc1ccc(S(=O)(=O)NC(=O)c2ccc(N3CCN(Cc4ccccc4-c4ccc(Cl)cc4)CC3)cc2)cc1[N+](=O)[O-] [ABT-737] |  |  |  |  |  |  |  | IC50 (OVCAR-3 cells [2]): 10 ± 4 µM
3 | poly (cystaminebisacryl-amide-diaminohexane)-polyethylene glycol linked to RGD (Arg-Gly-Asp) [polymer alone] |  |  |  |  |  |  |  | immunogenicity at injection site [3]: no swelling, inflammation, or redness at injection site
4 | B1 | inactive | inactive | comparable to EGFP (negative control) except in OVCAR-3 cells; also recorded: apoptotic activity diminishes | some activity | mitochondrial localization; also recorded: effectively localize to the mitochondria | significant level of % MOMP | do not activate firefly luciferase | effect of deleting the BH3 domain of Bad on activity (TMRE) (OVCAR-3 cells [6]; FIG. 20): significantly reduces the activity; effect of added paclitaxel on the activity of the construct (7-AAD) (Kuramochi cells [9]): does not seem to increase
5 | B2 | inactive | inactive | comparable to EGFP (negative control) except in OVCAR-3 cells; also recorded: apoptotic activity diminishes | some activity | found in the cytoplasm | significant level of % MOMP | do not activate firefly luciferase | 
